These results are taken from publication PMC12804832.

This series has as its target T1, Msn2 DBD (Saccharomyces cerevisiae, UniProt P33748 643-704).
T1 sequence: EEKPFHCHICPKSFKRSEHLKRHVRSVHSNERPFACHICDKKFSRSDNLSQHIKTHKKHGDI
As to the kind of experiment: EMSA.

B1: 51 bp DNA without motif (dsDNA)
DNA 1: CCTGCCACCTACACATACTTCCTACACAACCTGAGTCGTATTAATTTCGCG
DNA 2: CGCGAAATTATACGACTCAAGTTGTGTAGGAAGTATGTGTAGGTGGCGAGG
B1: the binding result is “no binding”.
